From paper PMC4100105, “A Novel VHH Antibody Targeting the B Cell-Activating Factor for B-Cell Lymphoma” (International Journal of Molecular Sciences, 2014)

B1: anti-BAFF64 (VHH)
VHH: QVQLVDSGGGLVQAGGSLRLSCVASGALISRRGMGWYRQAPGRQRELVAGISSDGTTNYAQSVEGRFTISRDNAKRSVYLQMNSLKPEDTAVYYCHARTRWKSYWGQGTQVTVSS
notes: Soluble sdAb of about 15 kDa from an immune alpaca library; also called clone 64; anti-BAFF64 sdAb; source: E. coli TG1, periplasm, vector pSJF2, purified (Ni-NTA)
B2: baffb11 (VHH)
VHH: HVQLVDSGGGLVQAGGSLRLSCAASGRTFSSYAMGWFRQAPGKEREFVAAISWSGGRTYYADSVKGRFTISRNNAKNTVYLQMNNLKPEDAAVYYCAARSRASLSGTPLSSPSYYRYWGQGTQVTVSS
B3: anti-BAFFG3 (VHH)
VHH: HVQLVDSGGGLVAGGSLRLSCAASGRTFSMSAVAWFRQAPGKEREFVAAISKSSISTYYADSVKGRFTISRDNARNTVNLQMNSLKPEDTAVYYCNSALNGRLPGRHWGQGTQVTVSS
notes: Soluble sdAb of about 15 kDa from an immune alpaca library; also called clone G3; anti-BAFFG3 sdAb; source: E. coli TG1, periplasm, vector pSJF2, purified (Ni-NTA)
B4: baff41 (VHH)
VHH: HVQLVDSGGGLVQPGGSLRLSCTASGRTFRDYAMGWFRQAPGKEREFVAAIIGRGASTQYADFVKGRFTISRDNAKNTVYLQMNSLRPEDTAVYYCHAYDPRRNGDYWGQGTQVTVSS
B5: baffc6 (VHH)
VHH: HVQLVDSGGGLVQAGGSLRLSCAAPRNTFSRYAMAWYRQAPGKRRESVASISSGGISHYTDSVKGRFTISRDNAKNTVYLQMNSLKPEDSAVYYCAASREWGLLRHRPGYWGQGTQVTVSS
B6: bafff4 (VHH)
VHH: HVQLVDSGGGLVQAGGSLRLSCTVSGRTSRYAMAWFRQAPGKGREFVAGVNRSGGRPNYSNSVKGRFTISRDNAKNTVYLQMNGLKPEDTAVYYCAAEDRISQSYEYWGQGTQVTVSS
B7: baffh1 (VHH)
VHH: HVQLVDSGGGSVQTGDSLTLSCVQSGRTFRSYAMAWYRQAPGKERELVARISSGYSTNYLDSVKGRFTISRDNDKNTFYLQMNSLRPEDTAVYYCNSALNGRLPGRHWGQGTQVTVSS
B8: baffb2 (VHH)
VHH: HVQLVDSGGGLVQAGGSLRLSCAASGRSFRRYAMAWFRQTPGKEREFVAAISRSGGSTSYADSVKGRFTISRDNVKNTVYLQMNSLKPEDTAIYYCAADRWGSPTDLRLPRELDYWGQGTHVTVSS
B9: anti-BAFF52 (VHH)
VHH: HVQLVDSGGGLVQAGGSLRLSCAASGRSFKNYHMGWFRQAPGKEREFVAAINGRGSRTKYADSVKGRFTISRDNAERTVRLEMNSLKPEDTAVYYCAAGGPEFYRGRLEDYAYWGPGTQVTVSS
notes: Soluble sdAb of about 15 kDa from an immune alpaca library; also called clone 52; anti-BAFF52 sdAb; source: E. coli TG1, periplasm, vector pSJF2, purified (Ni-NTA)

Experiments:
[1] = target: T1, B cell-activating factor (BAFF) (UniProt Q9Y275, biotin (NHS-LC-Biotin, 3:1 molar ratio of biotin to protein) in the BLI assay; not biotinylated when coated on ELISA plates); test: ELISA; competition ELISA; BAFF (10 ug/mL) coated; sdAb (0-100 ug/mL) mixed with TACI (10 ug/mL), 2 h at 37 C; bound TACI detected with HRP goat anti-human IgG; details: both partners purified
T1 construct: probably a soluble recombinant human BAFF (surmise); The same antigen was used for immunisation, panning, BLI, ELISA and the cell assay; also called B lymphocyte stimulator; BLyS

[2] = target: T1, B cell-activating factor (BAFF); test: cell-based or functional assay
[3] = target: T1, B cell-activating factor (BAFF); test: BLI; Octet RED; biotinylated BAFF (20 ug/mL) loaded on streptavidin biosensors; sdAbs 1.25-20 uM as analyte; PBST (PBS pH 7.4, 0.1% BSA, 0.02% Tween-20); room temperature; association 300 s, dissociation 1500 s; global 1:1 fit; 'relative affinity'; details: both partners purified
[4] = target: T1, B cell-activating factor (BAFF)
Target sequence in this assay (Q9Y275 134-285): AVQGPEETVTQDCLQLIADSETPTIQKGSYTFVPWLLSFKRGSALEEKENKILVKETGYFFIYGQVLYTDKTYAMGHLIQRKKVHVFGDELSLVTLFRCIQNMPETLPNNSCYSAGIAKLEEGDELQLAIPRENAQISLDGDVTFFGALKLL

[5] = target: T1, B cell-activating factor (BAFF); test: ELISA; competition ELISA; BAFF (10 ug/mL) coated; sdAb (0-500 ug/mL) mixed with BCMA (50 ug/mL), 2 h at 37 C; bound BCMA detected with HRP goat anti-human IgG; details: both partners purified

| Binder | Kd [3] [nM] | koff [3] [s⁻¹] | kon [3] [M⁻¹ s⁻¹] | binding result [4] | other results |
| --- | --- | --- | --- | --- | --- |
| B1 | 319 | 0.000729 | 2290 | – | inhibition ratio of TACI binding to BAFF at 100 ug/mL sdAb [1]: 31%; inhibitory ratio of BAFF-induced (750 ng/mL) Raji cell proliferation, CCK-8 assay, sdAb 0-100 ug/mL; value at 100 ug/mL [2]: 55% |
| B2 | – | – | – | binds | – |
| B3 | 823 | 0.00239 | 2900 | – | inhibition ratio of BCMA binding to BAFF at 500 ug/mL sdAb [5]: 33% |
| B4 | – | – | – | binds | – |
| B5 | – | – | – | binds | – |
| B6 | – | – | – | binds | – |
| B7 | – | – | – | binds | – |
| B8 | – | – | – | binds | – |
| B9 | 3180 | 0.0182 | 5710 | – | – |
